Where “and” joins values, the source holds several entries; their conditions need not be identical. Equal entries are not always repeated. Blank lines part the entries; values can stand above or below the binder they belong to.
B6: Twa1_14 mutant (A125G, Q126R, ΔT127, Q128E, A130Q, M143L, E144Q, L147F, A148S, F152Y, F160V; 58–190), CTLH-CRA domain (domain or fragment, mouse, UniProt Q9D7M1 58-190, looked up)
chain: SVDLETLDERIKIREMILKGQIQEAIALINSLHPELLDTNRYLYFHLQQQHLIELIRQRETEAALEFGRELQEQGEESRECLTELQRTFSLLAYDSPEESPVGDLLHMMQRQKVWSEVNQAVLDYENRESTP
notes: Twa1, mouse, CTLH-CRA domain 58-190 with eleven RanBP10-like changes; also called Twa_14; source: E. coli BL21 CodonPlus (DE3) RIL, purified (Ni-IDA, 3C cleavage, SEC); not shown: His6, N-terminal, cleaved
B8: muskelin CTLH-CRA domain (205–735 Δ248–625) (domain or fragment, rat, UniProt Q99PV3 205-735, looked up)
chain: EHPMLTDMHDKLVLKGDFDACEELIEKAVNDGLFNQYISQQEYPSKDYLLRHCKYLIRKHRFEEKAQMDPLSALKYLQNDLYITVDHSDPEETKEFQLLASALFKSGSDFTALGFSDVDHTYAQRTQLFDTLVNFFPDSMTPPKGNLVDLITL
notes: muskelin, rat, fusion of the CTLH motif and the C-terminus (CRA^N-like): residues 205-735 with 248-625 deleted; also called muskelin wt; CTLH-Ct construct; source: E. coli BL21 CodonPlus (DE3) RIL, purified as described previously (van gen Hassend et al., 2023)

Tests used:
[1] = molecular target: T1, Twa1 (1–228) (mouse, UniProt Q9D7M1 1-228); test: SEC-MALS; Superdex 200 10/300 GL; Twa1 (1–228) alone, co-expressed Twa1-Rmnd5a (CTLH-CRA) and Twa1-Maea (CTLH-CRA) complexes, Maea double mutant (Y272A, Y275A); settings: both partners purified
T1 construct: Twa1, mouse, residues 1-228; A homodimer on its own (SEC-MALS); one copy pairs with RanBP10 in the heterodimer of PDB 9SOC; also called full-length dimeric Twa1; source: E. coli BL21 CodonPlus (DE3) RIL, purified as described previously (van gen Hassend et al., 2023)

[2] = molecular target: T2, RanBP9 (69–653)-Twa1 (1–228) complex (mouse, UniProt P69566 69-653; Q9D7M1 1-228); test: ITC; competition: RanBP9-Twa1 or RanBP10-Twa1 complex (160 μM) titrated into pre-formed Twa1_52-muskelin or Twa1_52-Wdr26 complex (16 μM); 25°C; competitive binding model with the parameters of the first titration; settings: both partners purified
T2 construct: RanBP9, mouse, residues 69-653; Twa1, mouse, residues 1-228; In the text on the KD values the complex is called simply RanBP9; also called RanBP9-Twa1; source: E. coli BL21 CodonPlus (DE3) RIL, complex purified as described previously (van gen Hassend et al., 2023)

[3] = molecular target: the molecule itself; test: SEC-MALS; ITC-assembled samples: excess RanBP9-Twa1 added to pre-assembled Twa1_52-muskelin or Twa1_52-Wdr26; Superose 6 10/300 GL
[4] = molecular target: T3, RanBP9 CTLH-CRA domain (324–614, Δ391–534) (mouse, UniProt P69566 324-614, Δ391–534); test: SEC-MALS; CTLH-CRA domain complexes co-expressed in E. coli and purified as complexes; Superdex 75 10/300 GL; 20 mM tricine pH 8.0, 500 mM NaCl, 1 mM TCEP; settings: both partners purified
T3 construct: RanBP9, mouse, fusion of CTLH and CRA^N: residues 324-614 with the linker 391-534 deleted (without the CRA^C segment); A longer construct with the CRA^C segment (324–638, Δ391–534) was crystallised alone (PDB 9SNE); also called R9

[5] = molecular target: B6; test: native gel or EMSA; native agarose gel electrophoresis (NAGE): CTLH-CRA domains at 200 μM incubated with the partner at least 30 min at room temperature; 0.8% agarose, 25 mM Tris, 200 mM glycine, 4°C; Coomassie; settings: both partners purified
[6] = molecular target: T4, Twa1_10 mutant (A130Q, L147F, F152Y, F160V), CTLH-CRA domain (mouse, UniProt Q9D7M1 58-190, A130Q | L147F | F152Y | F160V); test: as above; settings: both partners purified
T4 construct: Twa1, mouse, CTLH-CRA domain 58-190 with four RanBP10-like substitutions; source: E. coli BL21 CodonPlus (DE3) RIL, purified (Ni-IDA, 3C cleavage, SEC); not shown: His6, N-terminal, cleaved

[7] = molecular target: the molecule itself; test: SEC-MALS; Maea CTLH-CRA dilution series, Superdex 200 10/300 GL; molar masses of 0.3 ml peak fractions against concentration, one-site binding fit; the constant is of the step tetramer (dimer of dimers) to dimers
[8] = molecular target: B8; test: ITC; muskelin CTLH-CRA (160 μM, syringe) titrated into RanBP10 or Twa1 CTLH-CRA variants (16 μM, cell); 25°C; 20 mM tricine pH 8.0, 500 mM NaCl, 1 mM TCEP; one-site model; settings: both partners purified
[9] = molecular target: the molecule itself; test: SEC-MALS; Superdex 200 10/300 GL; Twa1 (1–228) alone, co-expressed Twa1-Rmnd5a (CTLH-CRA) and Twa1-Maea (CTLH-CRA) complexes, Maea double mutant (Y272A, Y275A)
[10] = molecular target: T5, Twa1_52 mutant (A125G, Q126R, Δ127T, L140K, E144K, L147F, F152Y, F160V), CTLH-CRA domain (mouse, UniProt Q9D7M1 58-190, A125G | Q126R | Δ127T | L140K | E144K | L147F | F152Y | F160V); test: SEC-MALS; purified CTLH-CRA domains alone or mixed (RanBP10 and Twa1 variants with Maea or muskelin), final concentration 250 μM, Superdex 75 10/300 GL; settings: both partners purified
T5 construct: Twa1, mouse, CTLH-CRA domain 58-190 with eight changes; source: E. coli BL21 CodonPlus (DE3) RIL, purified (Ni-IDA, 3C cleavage, SEC); also tagless, co-expressed with muskelin or Wdr26 CTLH-CRA domain; not shown: His6, N-terminal, cleaved

T1 sequence (Q9D7M1 whole entry, the tested form may be a part): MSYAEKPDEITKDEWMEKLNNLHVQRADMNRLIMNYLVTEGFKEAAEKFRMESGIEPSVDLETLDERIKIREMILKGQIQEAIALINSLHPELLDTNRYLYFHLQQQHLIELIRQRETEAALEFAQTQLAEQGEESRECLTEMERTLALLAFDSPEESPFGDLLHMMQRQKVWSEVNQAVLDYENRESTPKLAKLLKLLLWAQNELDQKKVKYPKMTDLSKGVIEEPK
T2 sequence (P69566 69-653, chain 1 of 2): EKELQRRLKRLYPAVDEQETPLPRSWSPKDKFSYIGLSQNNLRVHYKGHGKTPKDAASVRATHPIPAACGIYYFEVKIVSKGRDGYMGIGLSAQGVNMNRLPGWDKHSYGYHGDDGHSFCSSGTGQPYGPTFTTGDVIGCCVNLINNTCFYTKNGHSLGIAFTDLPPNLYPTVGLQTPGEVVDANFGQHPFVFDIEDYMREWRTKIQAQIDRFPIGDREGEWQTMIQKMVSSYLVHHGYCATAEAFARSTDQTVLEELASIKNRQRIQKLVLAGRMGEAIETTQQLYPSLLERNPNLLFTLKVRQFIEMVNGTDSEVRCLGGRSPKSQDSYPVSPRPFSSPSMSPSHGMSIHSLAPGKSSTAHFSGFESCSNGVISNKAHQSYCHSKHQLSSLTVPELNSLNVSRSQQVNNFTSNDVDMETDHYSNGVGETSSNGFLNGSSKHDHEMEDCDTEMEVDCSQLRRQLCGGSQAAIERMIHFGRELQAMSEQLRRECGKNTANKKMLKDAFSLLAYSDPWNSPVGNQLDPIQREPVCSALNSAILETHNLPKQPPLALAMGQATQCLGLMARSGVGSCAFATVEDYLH
T2 sequence (Q9D7M1 whole entry, chain 2 of 2, the tested form may be a part): as the sequence (Q9D7M1 whole entry, the tested form may be a part) above
T3 sequence (P69566 other isoform, or with tags, fused parts or gaps Δ391–534 | Δ391–534 | mutant): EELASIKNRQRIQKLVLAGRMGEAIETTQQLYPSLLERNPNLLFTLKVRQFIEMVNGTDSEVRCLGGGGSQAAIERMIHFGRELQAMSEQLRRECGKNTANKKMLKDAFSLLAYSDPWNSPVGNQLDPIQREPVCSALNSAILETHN

B1: Rmnd5a CTLH-CRA domain (147-275) (domain or fragment, mouse, UniProt Q80YQ8 147-275, looked up)
chain: DPSQKEPFVELNRILEALKVRVLRPALEWAVSNREMLIAQNSSLEFKLHRLYFISLLMGGTTNQREALQYAKNFQPFALNHQKDIQVLMGSLVYLRQGIENSPYVHLLDANQWADICDIFTRDACALLG
notes: Rmnd5a, mouse, residues 147-275; Could not be purified on its own; soluble when co-expressed with Twa1; source: E. coli BL21 CodonPlus (DE3) RIL, co-expressed with Twa1 (1–228), complex purified (Ni-IDA, 3C cleavage, SEC); not shown: His6, N-terminal, cleaved
stoichiometry N [1]: 1

Kd [2]: 0.0795 nM
B2: muskelin (1–735) (natural protein, rat, UniProt Q99PV3 1-735, looked up)
chain: MAAGGAVAAAPECRLLPYALHKWSSFSSTYLPENILVDKPNDQSSRWSSESNYPPQYLILKLERPAIVQNITFGKYEKTHVCNLKKFKVFGGMNEENMTELLSSGLKNDYNKETFTLKHKIDEQMFPCRFIKIVPLLSWGPSFNFSIWYVELSGIDDPDIVQPCLNWYSKYREQEAIRLCLKHFRQHNYTEAFESLQKKTKIALEHPMLTDMHDKLVLKGDFDACEELIEKAVNDGLFNQYISQQEYKPRWSQIIPKSTKGDGEDNRPGMRGGHQMVIDVQTETVYLFGGWDGTQDLADFWAYSVKENQWTCISRDTEKENGPSARSCHKMCIDIQRRQIYTLGRYLDSSVRNSKSLKSDFYRYDIDTNTWMLLSEDTAADGGPKLVFDHQMCMDSEKHMIYTFGGRILTCNGSVDDSRASEPQFSGLFAFNCQCQTWKLLREDSCNAGPEDIQSRIGHCMLFHSKNRCLYVFGGQRSKTYLNDFFSYDVDSDHVDIISDGTKKDSGMVPMTGFTQRATIDPELNEIHVLSGLSKDKEKREENVRNSFWIYDIVRNSWSCVYKNDQAAKENLSKSLQEEEPCPRFAHQLVYDELHKVHYLFGGNPGKSCSPKMRLDDFWSLKLCRPSKDYLLRHCKYLIRKHRFEEKAQMDPLSALKYLQNDLYITVDHSDPEETKEFQLLASALFKSGSDFTALGFSDVDHTYAQRTQLFDTLVNFFPDSMTPPKGNLVDLITL
notes: muskelin, rat, residues 1-735; also called full-length muskelin; tetrameric muskelin; source: E. coli BL21 CodonPlus (DE3) RIL, purified as described previously (van gen Hassend et al., 2023)
stoichiometry N [3]: 4

B3: muskelin CTLH-CRA domain, C-terminally shortened (205–719, Δ248–624) (domain or fragment, rat, UniProt Q99PV3 205-719, looked up)
chain: EHPMLTDMHDKLVLKGDFDACEELIEKAVNDGLFNQYISQQEYRPSKDYLLRHCKYLIRKHRFEEKAQMDPLSALKYLQNDLYITVDHSDPEETKEFQLLASALFKSGSDFTALGFSDVDHTYAQRTQLFDTLVNFFP
notes: muskelin, rat, residues 205-719 with 248-624 deleted; Insoluble on its own; soluble only when co-expressed with RanBP9/10 CTLH-CRA domains; also called muskelin (shortened C-terminus); Mkln; not shown: His6, N-terminal, cleaved
stoichiometry N [4]: 1

Kd [2]: 0.412 nM
B4: Wdr26 (102–641) (domain or fragment, mouse, UniProt Q8C6G8 102-641, looked up)
chain: QSDEDVIRLIGQHLNGLGLNQTVDLLMQESGCRLEHPSATKFRNHVMEGDWDKAENDLNELKPLVHSPHAIVVRGALEISQTLLGIIVRMKFLLLQQKYLEYLEDGKVLEALQVLRCELTPLKYNTERIHVLSGYLMCSHAEDLRAKAEWEGKGTASRSKLLDKLQTYLPPSVMLPPRRLQTLLRQAVELQRDRCLYHNTKLDNNLDSVSLLIDHVCSRRQFPCYTQQILTEHCNEVWFCKFSNDGTKLATGSKDTTVIIWQVDPDTHLLKLLKTLEGHAYGVSYIAWSPDDSYLVACGPDDCSELWLWNVQTGELRTKMSQSHEDSLTSVAWNPDGKRFVTGGQRGQFYQCDLDGNLLDSWEGVRVQCLWCLSDGKTVLASDTHQRVRGYNFEDLTDRNIVQEDHPIMSFTISKNGRLALLNVATQGVHLWDLQDRVLVRKYQGVTQGFYTIHSCFGGHNEDFIASGSEDHKVYIWHKRSELPIAELTGHTRTVNCVSWNPQIPSMMASASDDGTVRIWGPAPFIDHQNIEEECSSMDS
notes: Wdr26, mouse, residues 102-641; also called dimeric Wdr26; (near) full-length Wdr26; source: E. coli BL21 CodonPlus (DE3) RIL, purified as described previously (van gen Hassend et al., 2023)
stoichiometry N [3]: 2

B5: Maea CTLH-CRA domain (156-279) (domain or fragment, mouse, UniProt Q4VC33 156-279, looked up)
chain: NIEMFLTAKEVEESLERRETATCLAWCHDNKSRLRKMKSCLEFSLRIQEFIELVRQNKRLDAVRHARKHFSQAEGSQLDEVRQVMGMLAFPPDTHISPYKDLLDPARWRMLIQQFRYDNYRLHQ
notes: Maea, mouse, residues 156-279; In solution between a dimer and a tetramer (dimer of dimers), depending on concentration; source: E. coli BL21 CodonPlus (DE3) RIL, purified (Ni-IDA, 3C cleavage, SEC); also co-expressed with Twa1 (1–228); not shown: His6, N-terminal, cleaved
binding result [5]: binds
binding result [6]: binds
stoichiometry N [1]: 1
Kd [7]: ~5000 nM
stoichiometry N [7]: 2 and 4

Binder: B6
Kd [8]: 192 nM

B7: Maea CTLH-CRA domain double mutant (Y272A, Y275A) (domain or fragment, mouse, UniProt Q4VC33 156-279, looked up)
chain: NIEMFLTAKEVEESLERRETATCLAWCHDNKSRLRKMKSCLEFSLRIQEFIELVRQNKRLDAVRHARKHFSQAEGSQLDEVRQVMGMLAFPPDTHISPYKDLLDPARWRMLIQQFRADNARLHQ
notes: Maea, mouse, CTLH-CRA domain; also called Maea double mutant; source: E. coli BL21 CodonPlus (DE3) RIL, purified (Ni-IDA, 3C cleavage, SEC); not shown: His6, N-terminal, cleaved
stoichiometry N [9]: 2

Binder: B8
stoichiometry N [10]: 1
